Experimental data: patent US20200087410A1 (GLYCOTOPE, published 2020)

Target: T1, CD40 (immobilized CD40, antigen ELISA / surface plasmon resonance) (human, UniProt P25942 21-193, limits assumed)
T1 construct: also called TNFRSF5; TNF receptor super family member 5
Experiment: immobilized CD40; screen by antigen ELISA and surface plasmon resonance (method of the KD not named)
Procedure: Following expression of the different constructs in NM-H9D8 and NM-H9D8-E6Q12 cells, the titer of the humanized antibody variants was determined and their concentration adjusted. Then, the humanized antibodies were screened in an antigen ELISA and via surface plasmon resonance.

T1 sequence (P25942 21-193 limits assumed): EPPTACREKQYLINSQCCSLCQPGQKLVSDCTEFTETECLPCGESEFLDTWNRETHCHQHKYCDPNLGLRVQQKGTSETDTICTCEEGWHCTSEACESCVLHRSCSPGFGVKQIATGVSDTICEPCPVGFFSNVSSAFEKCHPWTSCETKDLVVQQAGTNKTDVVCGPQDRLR

Kd: 25 nM
B1: humanized anti-CD40 antibody variant VH10/VL2 (as screened in Example 3) (antibody, V domains shown)
VH: EVQLVQSGAEVKKPGASVKISCKTSGYTFTEYIMHWVKQSPGKSLEWIGGIIPNNGGTSYNQKFKDRVTMTVDKSISTGYMELSRLRSDDTAVYYCTRREVYGRNYYALDYWGQGTLVTVSS
VL: DIQMTQSPSSLSASVGDRVTITCSASQGINNYLNWYQQKPGKAPKLLIYYTSSLHSGVPSRFSGSGSGTDYTFTISSLQPEDIATYYCQQYSNLPYTFGQGTKLEIKR
notes: Human gamma1 or gamma2 heavy constant region and human kappa constant region; also called hLob
